The values below come from patent publication US10358638B2, “Method of producing 1,5-pentadiamine using lysine decarboxylase mutant having improved thermal stability” (AJINOMOTO CO., INC., priority 2014, dated 2019).

The nature of data set [1]: Screening of lysates for retained lysine decarboxylase activity after heat treatment at 65° C. Conditions: lysate incubated at 65° C. for 2 hours, then reacted at 37° C. for 40 minutes. The class given is biochemical, Escherichia coli. The method, then:
A colony of each transformant in which the mutated lysine decarboxylase had been introduced was picked up, inoculated to 1 mL of the LB medium containing 100 μg/mL of ampicillin, and cultured at 30° C. for 24 hours. 18 μL of 100 mM 2-(N-morpholino) ethanesulfonic acid (MES)-NaOH buffer (pH6.0) and 2.7 μL of FastBreak cell lysis reagent (Promega) were added to 10 μL of this cultured medium, which was then incubated at 37° C. for 30 minutes to lyse the microbial cells. Then, this lysate solution was heated up to 65° C. and incubated for 2 hours. After this heat treatment, 190 μL of a reaction solution (pH 5.5) containing 10 g/L of lysine hydrochloride, 21.3 g/L (100 mM) of MES, 26.5 mg/L of Pyridoxal-5′-phosphate (PLP) and 20 mg/L of Bromocresol purple was added and reacted at 37° C. for 40 minutes. […] More abundant formation of 1,5-PD and retention of activity as compared to bacteria expressing the wild-type enzyme after treating with heat under the above conditions were used as an indicator. Three candidate strains expressing CadA having improved thermal stability were obtained using this indicator. These transformants of E. coli JM109 strain were designated as CadA231, CadA232 and CadA233, respectively.

Data set [2] is described as follows: Enzyme activity of culture media of expressing strains after heat treatment with or without disruption. It counts as cell-based, Escherichia coli. The method, then: (§1) The activity of the lysine decarboxylase was measured according to the method described in JP patent application laid-open Publication No. 2008-193899. 0.1 mL of a microbial cell suspension or a treated product thereof was added to 1 mL of a reaction solution containing 100 mM MES-NaOH buffer (pH 6.0), 10 g/L (55 mM) of L-lysine hydrochloride and 26.5 mg/L (0.1 mM) of PLP, and then the reaction mixture was incubated at 37° C. for 5 minutes. 0.1 mL of the reaction solution was collected and added to 1 mL of 1% (v/v) phosphoric acid to stop the reaction. Lysine and 1,5-PD were quantified with HPLC by a post column OPA method (S. R. Vale and M. B. Gloria, Journal Of AOAC International (1997) vol. 80, p. 1006-1012) or a method of quantifying remaining L-lysine using a biosensor BF-5 (Oji Scientific Instruments Co., Ltd.). One unit was defined as an activity that formed 1 μmol of 1,5-PD in one minute under this condition.
Microbial cells of E. coli JM109/pCadA220 and E. coli JM109/pCadA234 carrying the wild-type CadA and the double mutant CadA, respectively were cultured in the LB medium. Subsequently, 15 mL of the cultured medium was inoculated into 300 mL of culture medium (25 g/L of glucose, 5 g/L of ammonium sulfate, 2 g/L of potassium phosphate, 1 g/L of magnesium sulfate heptahydrate, 20 mg/L of iron sulfate heptahydrate, 20 mg/L of manganese sulfate pentahydrate, 1 mg/L of thiamine hydrochloride, 0.45 g/L of hydrolyzed soybeans, pH 7.0) in a 500 mL jar fermenter (manufactured by ABLE & Biott Co., Ltd.), and cultured with ventilation at 300 mL/minute while stirring at 250 rpm at 30° C. for 12 hours. Culture media containing 10.1 g/L and 10.9 g/L of microbial cells in terms of dry microbial cell weight were able to be prepared for E. coli JM109/pCadA220 and E. coli JM109/pCadA234, respectively. For the purpose of improving substrate permeability, the pH value was adjusted to 5.5, and subsequently the culture media were incubated at 55° C. and 60° C., and then the culture media were directly used to measure the activity after the incubation.
Since the lysine decarboxylase is expressed within the microbial cell, when the microbial cell is used directly, lysine cannot react with the lysine decarboxylase, and the efficiency of a decarboxylation reaction is very poor. […] However, the wild-type enzyme was inactivated during the incubation when heated excessively. The mutated enzyme having the improved thermal stability could stably keep its activity even when using conditions where the wild-type enzyme was easily inactivated as shown in Example 2. When the microbial cells carrying such a mutated enzyme were used, efficient treatment in a short period of time was possible. This has shown that the mutated enzyme not only can act at higher temperature upon reaction but also can be easily used when the microbial cell is directly used.

Data set [3] can be described thus: Remaining lysine decarboxylase activity of cell free extract after incubation at 68° C. It counts as biochemical, Escherichia coli. The conditions noted are these: 68° C., 1 hour, FIG. 1. As for the experimental part: as §1
A combination mutant for increasing the amount of expressed CadA was constructed using QuikChange™ Site-Directed Mutagenesis Kit (Stratagene). A mutation to alter from Val (GTT) to Ile ([…]) at position 3 was introduced using the plasmid pCadA233 as the template and using oligonucleotides v3i_r (5′-cat gtg att caa tat tgc aat aat gtt cat cta cat tcc tcc tta cg-3′(SEQ ID NO:11)) and v3i_f (5′-cgt aag gag gaa tgt aga tga aca tta ttg caa tat tga atc aca tg-3′ (SEQ ID NO:12)) as primers according to a protocol. The nucleotide sequence of the constructed plasmid was determined by the method described in Example 2 to confirm that the objective mutation had been introduced, and this plasmid was designated as pCadA234. Microbial cells of E. coli JM109/pCadA234 expressing this double mutant CadA234 at high level were cultured to prepare a cell free extract in the same manner as in Example 2. The activity in this cell free extract was 663 U/mL, which was almost the same as that from the strain expressing the wild-type enzyme.
The resulting cell free extract was diluted to 20 fold with 0.1 M MES-NaOH buffer (pH 6.0). Each crude enzyme solution was incubated at 68° C., which is a higher temperature than in Example 2, and the remaining activity was measured over time. After incubation at 68° C. for one hour, the wild-type enzyme was inactivated to 27% while the single mutant enzymes V3I and A590T were inactivated to 47% and 27%, respectively. On the contrary, the double mutant enzyme retained 70% of its activity, and even after 3 hours, still retained about 60% of its activity (FIG. 1). Therefore, it was shown that the double mutation has a synergistic effect and further improved the thermal stability.

Where [4] appears, read: Incubation at 55° C. for 1 h, Disruption.
Where [5] appears, read: Incubation at 55° C. for 1 h, physical treatment None.
The mark [6] stands for this setting: Incubation at 55° C. for 3 h, Disruption.
Where [7] appears, read: Incubation at 55° C. for 3 h, physical treatment None.
Setting [8] is: Incubation at 60° C. for 1 h, Disruption.
The mark [9] stands for this setting: Incubation at 60° C. for 1 h, physical treatment None.
The mark [10] stands for this setting: No heat treatment, physical treatment None.

B1: pCadA220: wild-type lysine decarboxylase (CadA) derived from Escherichia coli W3110, expressed from plasmid pCadA220 (protein, UniProt P0A9H3 1-715, looked up)
Inducible lysine decarboxylase: MNVIAILNHMGVYFKEEPIRELHRALERLNFQIVYPNDRDDLLKLIENNARLCGVIFDWDKYNLELCEEISKMNENLPLYAFANTYSTLDVSLNDLRLQISFFEYALGAAEDIANKIKQTTDEYINTILPPLTKALFKYVREGKYTFCTPGHMGGTAFQKSPVGSLFYDFFGPNTMKSDISISVSELGSLLDHSGPHKEAEQYIARVFNADRSYMVTNGTSTANKIVGMYSAPAGSTILIDRNCHKSLTHLMMMSDVTPIYFRPTRNAYGILGGIPQSEFQHATIAKRVKETPNATWPVHAVITNSTYDGLLYNTDFIKKTLDVKSIHFDSAWVPYTNFSPIYEGKCGMSGGRVEGKVIYETQSTHKLLAAFSQASMIHVKGDVNEETFNEAYMMHTTTSPHYGIVASTETAAAMMKGNAGKRLINGSIERAIKFRKEIKRLRTESDGWFFDVWQPDHIDTTECWPLRSDSTWHGFKNIDNEHMYLDPIKVTLLTPGMEKDGTMSDFGIPASIVAKYLDEHGIVVEKTGPYNLLFLFSIGIDKTKALSLLRALTDFKRAFDLNLRVKNMLPSLYREDPEFYENMRIQELAQNIHKLIVHHNLPDLMYRAFEVLPTMVMTPYAAFQKELHGMTEEVYLDEMVGRINANMILPYPPGVPLVMPGEMITEESRPVLEFLQMLCEIGAHYPGFETDIHGAYRQADGRYTVKVLKEESKK
Take B1: the “activity after heat treatment of lysate” value in data set [1] was “inactivated”. Moreover, the Enzyme activity in data set [2] (setting [4]) was found to be 819 units/ml; in data set [2] (setting [5]) it was 246 units/ml; in data set [2] (setting [6]), 730 units/ml; in data set [2] (setting [7]), 375 units/ml; in data set [2] (setting [8]), 798 units/ml; in data set [2] (setting [9]), 282 units/ml. Further, the Enzyme activity in data set [2] (No heat treatment, Disruption) was found to be 914 units/ml; in data set [2] (setting [10]), 17.5 units/ml. In addition, the Relative activity in data set [2] (setting [4]) was determined as 89.6%; in data set [2] (setting [5]) it was 26.9%; in data set [2] (setting [6]) it was 79.9%; in data set [2] (setting [7]), 41.0%; in data set [2] (setting [8]), 87.3%; in data set [2] (setting [9]) it was 30.9%. Besides, the Relative activity in data set [2] (No heat treatment, Disruption) stood at 100%; in data set [2] (setting [10]), 1.9%. For the same molecule, the “remaining activity after incubation at 68° C. for one hour” value in data set [3] is on record as 27%.
